Assay results taken from publication doi:10.64898/2025.12.18.695067.

Biological target: DNAJB1 (recombinant, as used in SPR) (human) (UniProt P25685)
Test: SPR

Chain of UniProt P25685 (P25685 whole entry): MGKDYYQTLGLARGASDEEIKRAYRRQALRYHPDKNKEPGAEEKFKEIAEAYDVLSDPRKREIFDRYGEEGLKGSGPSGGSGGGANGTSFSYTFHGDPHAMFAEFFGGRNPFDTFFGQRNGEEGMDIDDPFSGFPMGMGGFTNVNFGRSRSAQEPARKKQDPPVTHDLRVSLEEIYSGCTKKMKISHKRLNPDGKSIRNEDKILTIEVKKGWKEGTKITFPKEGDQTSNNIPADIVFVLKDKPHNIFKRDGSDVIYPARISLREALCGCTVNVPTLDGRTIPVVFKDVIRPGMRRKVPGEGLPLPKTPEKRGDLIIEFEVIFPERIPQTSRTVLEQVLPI

“K27-linked diubiquitin (chemically synthesized; tag not told for the experiment) (from UniProt P0CG48 1-76; P0CG48 1-76)” gave a Kd of 1830 nM.
“K27-linked tetraubiquitin (synthetic) (from UniProt P0CG48 1-76)” gave a Kd of 3420 nM.
